Test results as given in article PMC6412121.

Molecular target: TF-TDP-43-FL (UniProt Q13148)
Test: EMSA
Settings: biotin-UTP incorporated in transcription; EMSA: 40 mM Tris-HCl pH 7.4, 30 mM KCl, 1 mM MgCl2, 0.01% IGEPAL CA-630, 1 mM DTT, 10 ug yeast tRNA, 10 ug BSA, 10 ng RNA, 200 ng protein in 10 ul, 25 C, 20 min

Chain of TF-TDP-43-FL (Q13148 whole entry): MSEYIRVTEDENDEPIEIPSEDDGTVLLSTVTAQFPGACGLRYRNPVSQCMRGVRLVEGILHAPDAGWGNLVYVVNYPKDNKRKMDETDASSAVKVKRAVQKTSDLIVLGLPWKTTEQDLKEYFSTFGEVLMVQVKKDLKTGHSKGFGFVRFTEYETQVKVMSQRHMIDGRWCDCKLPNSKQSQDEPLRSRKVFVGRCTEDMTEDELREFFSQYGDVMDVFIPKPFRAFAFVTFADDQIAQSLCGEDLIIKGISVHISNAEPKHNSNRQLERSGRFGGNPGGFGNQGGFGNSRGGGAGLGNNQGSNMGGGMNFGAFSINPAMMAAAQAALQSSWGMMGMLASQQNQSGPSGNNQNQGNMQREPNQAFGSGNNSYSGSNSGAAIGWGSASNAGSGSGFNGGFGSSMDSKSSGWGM

In the case of “GGGAGAGCAAAGUGAUGAGUAAUACUGGCUGGAGCCCCAAAGAGGCACGUGUGUGUGUUUGUGUGUGUGUGUAUAUGCUUGUCAGUGCAUGCACGUGUAUGUCUGGGAGUACAAAUGGGUGCGACUGGUUGUAGGGAACUAGCUAUGUGCCUUCUAUUAGGCCAUGACAGUCAAACUGAUAAGAUCUGAUUGC [scaRNA28]”, the binding is reported as “binds”.
